Measurements taken from doi:10.1101/2024.09.17.612794 (bioRxiv, 2024).

T1: Trn1Δloop (HEAT repeat 8 loop replaced with the GGSGGSG linker) (human, UniProt Q92973 1-343; Q92973 376-898)
T1 chain: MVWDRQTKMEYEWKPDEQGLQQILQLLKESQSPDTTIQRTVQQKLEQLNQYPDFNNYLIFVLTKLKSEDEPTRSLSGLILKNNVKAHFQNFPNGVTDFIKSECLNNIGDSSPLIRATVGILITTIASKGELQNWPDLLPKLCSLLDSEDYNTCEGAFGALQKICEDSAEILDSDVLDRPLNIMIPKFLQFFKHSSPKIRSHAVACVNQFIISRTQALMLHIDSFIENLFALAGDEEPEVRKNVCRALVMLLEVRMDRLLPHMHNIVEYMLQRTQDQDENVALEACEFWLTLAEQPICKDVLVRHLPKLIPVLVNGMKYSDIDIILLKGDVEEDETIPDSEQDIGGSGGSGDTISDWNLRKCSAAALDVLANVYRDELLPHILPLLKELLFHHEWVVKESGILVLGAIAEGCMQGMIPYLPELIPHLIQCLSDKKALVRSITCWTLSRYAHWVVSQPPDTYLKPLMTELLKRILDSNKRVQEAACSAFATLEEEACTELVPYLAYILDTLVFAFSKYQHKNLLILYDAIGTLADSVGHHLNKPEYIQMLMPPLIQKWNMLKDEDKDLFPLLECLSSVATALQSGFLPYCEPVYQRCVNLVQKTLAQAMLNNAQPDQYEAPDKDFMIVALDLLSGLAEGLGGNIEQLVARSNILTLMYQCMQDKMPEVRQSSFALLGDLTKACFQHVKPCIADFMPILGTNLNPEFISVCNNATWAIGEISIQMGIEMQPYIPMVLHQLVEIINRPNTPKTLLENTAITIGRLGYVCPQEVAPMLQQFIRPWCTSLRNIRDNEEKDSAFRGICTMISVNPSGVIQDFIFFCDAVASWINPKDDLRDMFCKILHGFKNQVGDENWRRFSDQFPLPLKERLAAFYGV

T2: full-length Transportin-1 (Trn1), wild type (human, UniProt Q92973 1-898)
T2 sequence (looked up): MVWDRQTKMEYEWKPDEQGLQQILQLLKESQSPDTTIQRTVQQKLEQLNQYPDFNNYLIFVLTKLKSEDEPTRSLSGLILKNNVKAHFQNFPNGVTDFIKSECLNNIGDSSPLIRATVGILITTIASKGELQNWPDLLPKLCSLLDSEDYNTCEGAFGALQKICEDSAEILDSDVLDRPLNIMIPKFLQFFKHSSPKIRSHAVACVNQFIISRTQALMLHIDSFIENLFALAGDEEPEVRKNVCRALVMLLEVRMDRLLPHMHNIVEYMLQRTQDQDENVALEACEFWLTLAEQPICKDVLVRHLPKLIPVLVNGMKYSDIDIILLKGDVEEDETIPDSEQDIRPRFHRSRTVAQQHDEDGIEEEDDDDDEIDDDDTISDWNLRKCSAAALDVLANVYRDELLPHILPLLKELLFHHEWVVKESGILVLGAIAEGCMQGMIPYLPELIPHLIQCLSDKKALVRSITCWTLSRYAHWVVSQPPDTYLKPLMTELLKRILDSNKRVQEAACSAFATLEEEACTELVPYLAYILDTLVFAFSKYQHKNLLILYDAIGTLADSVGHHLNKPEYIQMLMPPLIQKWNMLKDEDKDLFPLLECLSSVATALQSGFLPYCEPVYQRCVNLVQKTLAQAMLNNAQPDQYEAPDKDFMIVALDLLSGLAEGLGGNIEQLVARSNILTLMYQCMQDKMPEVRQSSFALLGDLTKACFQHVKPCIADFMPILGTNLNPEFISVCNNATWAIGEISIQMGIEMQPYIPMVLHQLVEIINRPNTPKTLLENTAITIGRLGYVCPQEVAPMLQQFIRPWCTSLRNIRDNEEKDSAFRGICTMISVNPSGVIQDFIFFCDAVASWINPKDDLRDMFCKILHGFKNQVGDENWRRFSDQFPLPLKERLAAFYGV


Assays:
[1] = target: T1, Trn1Δloop (HEAT repeat 8 loop replaced …); experiment: SEC-MALS
[2] = target: T2, full-length Transportin-1 (Trn1), wild …; experiment: SEC-MALS
[3] = target: T2, full-length Transportin-1 (Trn1), wild …; experiment: ITC

| Binder | stoichiometry N [1] [molar ratio] | stoichiometry N [2] [molar ratio] | Kd [3] [nM] |
| --- | --- | --- | --- |
| PPARγ (DBD), residues 135-209, purified (domain or fragment, human, UniProt P37231-1 135-209, looked up) MAIECRVCGDKASGFHYGVHACEGCKGFFRRTIRLKLIYDRCDLNCRIHKKSRNKCQYCRFQKCLAVGMSHNAIR | 1 | 1 | – |
| PPARγ (DHL), residues 102-505, purified (domain or fragment, human, UniProt P37231-1 102-505, looked up) YQSAIKVEPASPPYYSEKTQLYNKPHEEPSNSLMAIECRVCGDKASGFHYGVHACEGCKGFFRRTIRLKLIYDRCDLNCRIHKKSRNKCQYCRFQKCLAVGMSHNAIRFGRMPQAEKEKLLAEISSDIDQLNPESADLRALAKHLYDSYIKSFPLTKAKARAILTGKTTDKSPFVIYDMNSLMMGEDKIKFKHITPLQEQSKEVAIRIFQGCQFRSVEAVQEITEYAKSIPGFVNLDLNDQVTLLKYGVHEIIYTMLASLMNKDGVLISEGQGFMTREFLKSLRKPFGDFMEPKFEFAVKFNALELDDSDLAIFIAVIILSGDRPGLLNVKPIEDIQDNLLQALELQLKLNHPESSQLFAKLLQKMTDLRQIVTEHVQLLQVIKKTETDMSLHPLLQEIYKDLY | 1 | 1 | 200 |
